Laboratory results published in patent US20250326861A1 (REGENXBIO, published 2025).

Biological target: Activated human plasma kallikrein (Enzyme Research Laboratories) (human, UniProt P03952 20-638)
Assay: cell-based or functional assay

Chain of Activated human plasma kallikrein (Enzyme Research Laboratories) (P03952 20-638 limits assumed): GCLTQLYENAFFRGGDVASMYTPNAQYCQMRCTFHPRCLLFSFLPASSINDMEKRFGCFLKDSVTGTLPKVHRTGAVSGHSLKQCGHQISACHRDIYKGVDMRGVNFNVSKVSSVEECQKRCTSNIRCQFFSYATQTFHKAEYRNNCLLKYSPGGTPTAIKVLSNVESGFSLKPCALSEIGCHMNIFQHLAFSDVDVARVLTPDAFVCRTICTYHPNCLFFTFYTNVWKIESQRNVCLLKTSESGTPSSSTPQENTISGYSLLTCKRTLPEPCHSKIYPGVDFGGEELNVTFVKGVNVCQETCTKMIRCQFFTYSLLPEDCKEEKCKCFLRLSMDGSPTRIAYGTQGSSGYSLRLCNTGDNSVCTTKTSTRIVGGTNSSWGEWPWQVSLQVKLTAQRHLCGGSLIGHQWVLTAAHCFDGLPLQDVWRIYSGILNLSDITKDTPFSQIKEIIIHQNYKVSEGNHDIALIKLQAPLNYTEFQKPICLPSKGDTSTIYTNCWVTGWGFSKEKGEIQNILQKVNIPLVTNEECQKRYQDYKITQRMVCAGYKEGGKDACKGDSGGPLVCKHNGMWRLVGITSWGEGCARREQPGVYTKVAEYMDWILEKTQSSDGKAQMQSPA

B1: Lanadelumab (full length anti-pKal antibody) (antibody, IgG1, V domains shown)
VH: EVQLLESGGGLVQPGGSLRLSCAASGFTFSHYIMMWVRQAPGKGLEWVSGIYSSGGITVYADSVKGRFTISRDNSKNTLYLQMNSLRAEDTAVYYCAYRRIGVPRRDEFDIWGQGTMVTVSS
VL: DIQMTQSPSTLSASVGDRVTITCRASQSISSWLAWYQQKPGKAPKLLIYKASTLESGVPSRFSGSGSGTEFTLTISSLQPDDFATYYCQQYNTYWTFGQGTKVEIK
- IC50 (read off the curve), 6.25 nM pKal: ~2 nM
- IC50 (read off the curve), 12.5 nM pKal: ~4 nM
